This note sets out measurements from article PMC8945615.

The target in this experiment is soluble human fibrin (human) (UniProt P02679). Nature of the experiment: SPR. For orientation: Surface plasmon resonance follows binding to a sensor surface in real time, without labels.
Sequence of UniProt P02679 (P02679 whole entry, looked up, tested part not stated): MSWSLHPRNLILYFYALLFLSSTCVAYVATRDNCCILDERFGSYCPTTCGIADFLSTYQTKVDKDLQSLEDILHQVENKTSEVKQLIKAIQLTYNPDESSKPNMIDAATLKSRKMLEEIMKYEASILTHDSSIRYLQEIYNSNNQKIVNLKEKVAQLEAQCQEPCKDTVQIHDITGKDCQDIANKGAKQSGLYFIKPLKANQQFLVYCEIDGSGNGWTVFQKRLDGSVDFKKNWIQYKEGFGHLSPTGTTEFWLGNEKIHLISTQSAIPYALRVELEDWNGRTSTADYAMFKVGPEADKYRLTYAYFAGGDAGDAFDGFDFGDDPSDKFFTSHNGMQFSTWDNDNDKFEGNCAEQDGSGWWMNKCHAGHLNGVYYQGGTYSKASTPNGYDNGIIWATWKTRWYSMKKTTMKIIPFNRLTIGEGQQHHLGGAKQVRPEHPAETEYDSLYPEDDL

Regarding “full-length, purified αIIbβ3 (from UniProt P08514 32-1039; P05106 27-788) (receptor)”, the KD2 (heterogeneous ligand model) came out at 3.79e-07; the KD2 (heterogeneous ligand model, primed with PT25-2) stood at 1.37e-07; the Kd1 (heterogeneous ligand model) came to 1.47e-07; the Kd1 (heterogeneous ligand model, primed with PT25-2) amounted to 4.78e-08. The substance also registered a fold increase of ka1 on priming with PT25-2 (against unprimed αIIbβ3) of 3 fold, a ka1 (heterogeneous ligand model) of 13400 and a kd1 (heterogeneous ligand model) of 0.00196.
